Assay [1] addresses p53 TAD peptide 10-57 Hepta-(Asp) (human) (UniProt P04637). The assay is described as follows: fluorescence polarisation.
The target of assay [2] is p53 TAD peptide 1-57 Hepta-(Ala) (human) (UniProt P04637). The assay is described as follows: fluorescence polarisation. (In general: In fluorescence polarisation assays a small probe gives low polarisation when free and higher when bound to something large.)
In a further assay the target is Kix. Particulars: ref Zor et al., 2002, cited from earlier work.
In another assay the target is CBP Kix (UniProt Q92793). To be noted: cited from earlier work.
Sequence of UniProt Q92793 (Q92793 587-666): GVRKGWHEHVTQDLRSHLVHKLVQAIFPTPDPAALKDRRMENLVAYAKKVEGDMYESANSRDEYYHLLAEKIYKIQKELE

In general, Kd refers to the equilibrium constant for the complex coming apart.

Where “and” joins values, the source holds several entries; their conditions need not be identical. Identical values can stand only once.

Sequence of CREB (P16220 whole entry): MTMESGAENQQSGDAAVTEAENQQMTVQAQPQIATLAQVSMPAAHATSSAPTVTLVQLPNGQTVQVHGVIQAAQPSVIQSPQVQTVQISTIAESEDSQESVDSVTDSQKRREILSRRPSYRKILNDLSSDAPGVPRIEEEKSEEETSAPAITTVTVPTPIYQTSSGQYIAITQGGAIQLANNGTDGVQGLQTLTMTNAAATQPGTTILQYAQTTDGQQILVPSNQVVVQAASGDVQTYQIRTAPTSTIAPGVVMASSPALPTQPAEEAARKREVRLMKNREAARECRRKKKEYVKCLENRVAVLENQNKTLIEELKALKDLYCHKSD

With “p300 Taz1 domain (from UniProt Q09472 1-2414) (domain or fragment)”, the Kd stood at 38 nM in assay [1] and 560 nM in assay [2].

For the substance “CREB: transcription factor CREB, phosphorylated on Ser133, binding Kix (literature)”, the dissociation constant Kd at Kix (read-out: KD, Kix, CREB phosphorylated at Ser133) was 700 nM. Further, in the assay on Kix, the “fold tighter Kix binding upon phosphorylation of Ser133” value was 150 fold and ~ 150 fold.

Consider CREB (from UniProt P16220), for which, in the assay with CBP Kix, the dissociation constant (Kd) is 700 nM.
